Laboratory results published in doi:10.1101/2021.10.18.464838, “Two distinct classes of co-chaperones compete for the EEVD motif in heat shock protein 70 (Hsp70) to tune its activity” (bioRxiv, 2021).
Values joined by “and” are separate entries in the source; they are usually repeats but may differ in a detail not shown here. Identical values can stand only once. Where no end group is shown, it is not given here. The star is where a group is joined. FITC = O=C1OC2(c3ccc(O)cc3Oc3cc(O)ccc32)c2ccc(NC(=S)*)cc21; Ahx = NCCCCCC(=O)O

B4: Hsp72 phosphomimetic T636E tracer FITC-Ahx-GSGPEIEEVD (peptide)
peptide: GSGPEIEEVD-OH
modifications: not fully specified (N-terminus); printed as FITC-Ahx-GSGPEIEEVD
notes: last 10 residues of Hsp72/HSPA1A with the P6 Thr changed to Glu; also called T636E Hsp72 fluorescent tracer; P6 Thr to Glu; source: synthetic peptide, bought: GenScript

Assays:
Settings in all cases: both partners purified
[1] = target: T1, DnaJB4 (recombinant, human, full length, wild type) (human, UniProt Q9UDY4 1-337); assay: fluorescence polarisation; competition: 100 µM unlabeled peptide, 5 µM DnaJB4, 20 nM Hsp72 tracer in JDP binding buffer; room temperature, 30 min; tracer displacement relative to DMSO control
T1 construct: DnaJB4, human, full length; Expressed from pMCSG7 with a TEV site; also called WT DnaJB4; Class B JDP; source: E. coli BL21 (DE3) Rosetta, purified (Ni-NTA, TEV cleavage, SEC); not shown: His6, N-terminal, cleaved
T1 sequence (Q9UDY4 whole entry): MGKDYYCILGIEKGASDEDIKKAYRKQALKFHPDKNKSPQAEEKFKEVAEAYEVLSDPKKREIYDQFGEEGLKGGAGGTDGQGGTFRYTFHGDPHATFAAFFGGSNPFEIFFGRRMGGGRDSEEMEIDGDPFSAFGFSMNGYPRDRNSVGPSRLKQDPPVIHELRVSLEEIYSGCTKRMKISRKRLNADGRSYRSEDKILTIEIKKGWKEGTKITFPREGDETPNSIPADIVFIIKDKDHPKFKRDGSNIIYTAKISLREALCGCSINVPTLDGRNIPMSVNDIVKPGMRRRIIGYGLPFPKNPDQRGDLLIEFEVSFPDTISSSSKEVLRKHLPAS

[2] = target: B4; assay: fluorescence polarisation; saturation binding: 20 nM Hsp72 tracer with CHIP 110 to 0.013 µM in 2X dilutions; 50 mM HEPES, 50 mM KCl, 0.01% Triton X-100, pH 7.4; room temperature, 30 min
[3] = target: T1, DnaJB4 (recombinant, human, full …); assay: fluorescence polarisation; saturation binding: 20 nM Hsp72 tracer with DnaJB4 (WT or QPD) 110 to 0.013 µM in 2X dilutions; 50 mM Tris, 15 mM NaCl, 1 mM DTT, 0.01% Triton X-100, pH 8.0; room temperature, 30 min

B1: Hsp72 10-mer peptide with the P5 Ile replaced by Met (peptide, UniProt P0DMV8 632-641, looked up)
peptide: Ac-GSGPTMEEVD-OH
notes: also called P5 Ile to Met mutant; source: synthetic peptide, bought: GenScript
B1: binds [1].

B2: CHIP (recombinant human) (natural protein, UniProt Q9UNE7 1-303, looked up)
chain: MKGKEEKEGGARLGAGGGSPEKSPSAQELKEQGNRLFVGRKYPEAAACYGRAITRNPLVAVYYTNRALCYLKMQQHEQALADCRRALELDGQSVKAHFFLGQCQLEMESYDEAIANLQRAYSLAKEQRLNFGDDIPSALRIAKKKRWNSIEERRIHQESELHSYLSRLIAAERERELEECQRNHEGDEDDSHVRAQQACIEAKHDKYMADMDELFSQVDEKRKKRDIPDYLCGKISFELMREPCITPSGITYDRKDIEEHLQRVGHFDPVTRSPLTQEQLIPNLAMKEVIDAFISENGWVEDY
notes: CHIP, human; also called E3 ubiquitin ligase CHIP; TPR domain co-chaperone; source: E. coli BL21(DE3), purified (Ni-NTA, TEV cleavage, SEC); not shown: His6, N-terminal, cleaved
With B2 the “fold weakening of the affinity against the WT tracer” value [2] was 5 fold.

B3: Hsp72 C-terminal 7-mer peptide PTIEEVD (peptide)
peptide: Ac-PTIEEVD-OH
notes: last 7 residues of Hsp72/HSPA1A; also called last 7 amino acids of Hsp70's C-terminus; source: synthetic peptide, bought: GenScript
B3: binds [1].

B4: binds [3].

B5: Hsp72 tracer FITC-Ahx-GSGPTIEEVD (peptide)
peptide: {FITC-Ahx}-GSGPTIEEVD-OH
modifications: not fully specified; printed as FITC-Ahx-GSGPTIEEVD
notes: last 10 residues of Hsp72/HSPA1A; also called EEVD tracer; fluorescent Hsp72 peptide; source: synthetic peptide, bought: GenScript
With B5 the Kd [3] was 1910 nM and 1690 nM.
